Experimental findings from US20230406902A1 (BIONTECH, published 2023) are described below.

Bridges are numbered along the chain shown (N, C = ends). Where no end group is shown, it is not given here.

B1: Cyclopeptide-GGS-K(X) of ACHLGYPGRCG (Seq. 3) (peptide)
peptide: ACHLGYPGRCGGGSK
modifications: disulfide 2-10 (inferred); also: C-terminal Lys carries an unspecified functional group X for microarray attachment
notes: Microarray construct; also called parental peptide (cyclic, immobilized through C-terminus)
B2: Cyclopeptide-GGS-K(X) of ACHYSYPGVCG (Seq. 2) (peptide)
peptide: ACHYSYPGVCGGGSK
modifications: disulfide 2-10 (inferred); also: C-terminal Lys carries an unspecified functional group X for microarray attachment
notes: as for B1
B3: Cyclopeptide-GGS-K(X) of ACHLNYPGYCG (Seq. 1) (peptide)
peptide: ACHLNYPGYCGGGSK
modifications: disulfide 2-10 (inferred); also: C-terminal Lys carries an unspecified functional group X for microarray attachment
notes: as for B1

The assay deals with T1, IMAB362.
T1 construct: It is the target of the phage display selection; also called IMAB362 antibody
T1 sequence (VH, as listed by the source limits assumed, chain 1 of 2): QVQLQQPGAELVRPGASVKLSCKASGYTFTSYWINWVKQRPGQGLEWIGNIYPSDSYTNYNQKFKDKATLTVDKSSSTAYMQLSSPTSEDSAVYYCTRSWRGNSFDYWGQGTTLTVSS
T1 sequence (VL, as listed by the source limits assumed, chain 2 of 2): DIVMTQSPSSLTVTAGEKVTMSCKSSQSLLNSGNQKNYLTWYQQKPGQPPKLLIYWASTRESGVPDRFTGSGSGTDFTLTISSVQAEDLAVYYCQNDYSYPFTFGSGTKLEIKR
Put plainly: peptide microarray, 1 µg/ml IMAB362, fluorescence signal; this construct is the reference.
Procedure: Washing steps were performed prior every incubation step with 0.1% Tween-20 in 1×TBS. After the final incubation step the microarrays were washed (0.05% Tween-20 in 0.1×SSC) and dried in a stream of nitrogen. Each microarray was scanned using a GenePix Autoloader 4200AL (Molecular Devices, Pixel size: 10 μm). Signal intensities were evaluated using GenePix Pro 7.0 analysis software (Molecular Devices). For each peptide, the mean of the three triplicates was calculated.
Take B1: the “% Affinity compared to hit peptide” value was 100%.

Regarding B2, the “% Affinity compared to hit peptide” value stood at 100%.

As for B3, the “% Affinity compared to hit peptide” value was 100%.
